B1: PBP7, purified (enzyme)
chain: KTAAATTASQPEIASGSAMIVDLNTNKVIYSNHPDLVRPIASISKLMTAMVVLDARLPLDEKLKVDISQTPEMKGVYSRVRLNSEISRKDMLLLALMSSENRAAASLAHHYPGGYKAFIKAMNAKAKSLGMNNTRFVEPTGLSVHNVSTARDLTKLLIASKQYPLIGQLSTTREDMATFSNPTYTLPFRNTNHLVYRDNWNIQLTKTGFTNAAGHCLVMRTVINNKPVALVVMDAFGKYTHFADASRLRTWIETGKVMPVPAAALSYKKQKAAQMAAAGQTAQND
modifications: where used as the labelled protein in MST: NT647 RED-NHS dye on amines
B2: MepS (enzyme)
chain: CSANNTAKNMHPETRAVGSETSSLQASQDEFENLVRNVDVKSRIMDQYADWKGVRYRLGGSTKKGIDCSGFVQRTFREQFGLELPRSTYEQQEMGKSVSRSNLRTGDLVLFRAGSTGRHVGIYIGNNQFVHASTSSGVIISSMNEPYWKKRYNEARRVLSRS
modifications: where used as fl-MepS in MST: NT647 RED-NHS dye on amines
B3: MepM (enzyme)
chain: YHRDATPIVKTIELEQNEIRSLLPEASEPIDQAAQEDEAIPQDELDDKIAGEAGVHEYVVSTGDTLSSILNQYGIDMGDITQLAAADKELRNLKIGQQLSWTLTADGELQRLTWEVSRRETRTYDRTAANGFKMTSEMQQGEWVNNLLKGTVGGSFVASARNAGLTSAEVSAVIKAMQWQMDFRKLKKGDEFAVLMSREMLDGKREQSQLLGVRLRSEGKDYYAIRAEDGKFYDRNGTGLAKGFLRFPTAKQFRISSNFNPRRTNPVTGRVAPHRGVDFAMPQGTPVLSVGDGEVVVAKRSGAAGYYVAIRHGRSYTTRYMHLRKILVKPGQKVKRGDRIALSGNTGRSTGPHLHYEVWINQQAVNPLTAKLPRTEGLTGSDRREFLAQAKEIVPQLRFD

Holding throughout (assay): MST
One assay deals with T1, PBP4, native, purified (Escherichia coli, UniProt P24228 21-477, where used as the labelled protein in MST: NT647 RED-NHS dye on amines).
T1 chain: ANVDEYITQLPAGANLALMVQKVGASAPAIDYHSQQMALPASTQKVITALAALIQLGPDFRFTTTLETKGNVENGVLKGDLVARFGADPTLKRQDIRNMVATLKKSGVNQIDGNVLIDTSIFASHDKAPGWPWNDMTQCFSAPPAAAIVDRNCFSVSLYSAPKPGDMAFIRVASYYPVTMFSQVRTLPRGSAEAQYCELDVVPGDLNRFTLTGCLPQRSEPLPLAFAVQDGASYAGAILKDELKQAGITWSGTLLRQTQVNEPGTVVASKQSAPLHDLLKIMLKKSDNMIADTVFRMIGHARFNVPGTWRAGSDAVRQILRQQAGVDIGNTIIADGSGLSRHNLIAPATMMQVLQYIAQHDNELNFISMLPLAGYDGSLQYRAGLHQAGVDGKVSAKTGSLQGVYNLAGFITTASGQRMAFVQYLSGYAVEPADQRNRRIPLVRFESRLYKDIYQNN

The next assay addresses T2, PBP1A, purified (Escherichia coli, UniProt P02918 1-850, NT647 RED-NHS dye on amines (PBP1A was the labelled protein in all MST assays)).
T2 chain: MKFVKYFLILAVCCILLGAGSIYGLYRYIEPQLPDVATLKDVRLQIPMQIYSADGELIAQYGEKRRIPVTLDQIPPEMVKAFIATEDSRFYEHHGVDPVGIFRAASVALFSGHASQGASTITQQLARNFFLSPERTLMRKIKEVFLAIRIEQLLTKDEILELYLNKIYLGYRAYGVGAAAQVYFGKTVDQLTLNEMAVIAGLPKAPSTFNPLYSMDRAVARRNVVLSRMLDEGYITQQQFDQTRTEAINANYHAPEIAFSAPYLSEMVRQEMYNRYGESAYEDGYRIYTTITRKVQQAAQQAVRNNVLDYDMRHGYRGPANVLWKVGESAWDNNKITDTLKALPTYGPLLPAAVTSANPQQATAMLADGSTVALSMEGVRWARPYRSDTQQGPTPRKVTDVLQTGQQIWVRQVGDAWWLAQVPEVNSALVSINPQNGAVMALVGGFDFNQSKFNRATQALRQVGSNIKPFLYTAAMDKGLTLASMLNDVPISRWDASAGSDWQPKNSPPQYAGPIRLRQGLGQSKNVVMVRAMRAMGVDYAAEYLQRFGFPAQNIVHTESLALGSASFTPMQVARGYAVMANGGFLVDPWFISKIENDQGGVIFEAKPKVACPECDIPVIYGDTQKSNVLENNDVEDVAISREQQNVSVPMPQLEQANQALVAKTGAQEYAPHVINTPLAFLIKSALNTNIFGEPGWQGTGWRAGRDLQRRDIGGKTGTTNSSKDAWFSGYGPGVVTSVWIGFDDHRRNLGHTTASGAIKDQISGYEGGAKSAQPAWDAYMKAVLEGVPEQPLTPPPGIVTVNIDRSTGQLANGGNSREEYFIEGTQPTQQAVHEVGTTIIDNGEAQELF

The assay “MepS” deals with B2.

For orientation: Kd means a measure of binding affinity in units of concentration. Higher therefore signals weaker binding. B1 gave an equilibrium dissociation constant (Kd) in the assay with PBP4, native, purified of 332 nM.
As for B2, the dissociation constant (Kd) with PBP1A, purified is 91 nM.
As for B3, the dissociation constant (Kd) with MepS was determined as 1180 nM.

Values taken from article PMC7049810 (2020).
